Source: publication doi:10.1101/737098

Target: wild-type KRAS4b GTPase domain (1-169), GMPPNP-bound (human) (UniProt P01116)
Test: ITC

## NF1-GRD (GAP-related domain of neurofibromin 1) (from UniProt P21359-2 1198-1530) (domain or fragment)
  Kd: 1000 nM
